# Test results as given in patent US20220275100A1 (JIANGSU HENGRUI MEDICINE, published 2022).
# Where a chain is given by its changes, count along the chain named.
# B1: h160-01 (antibody, human IgG1, kappa)
# heavy: not shown
# light: DIVMTQSPASLAVSLGERATINCRASESVDNYGISFMHWYQQKPGQPPKLLIYRASNLESGVPDRFSGSGSGTDFTLTISSLQAEDVAVYYCQQTNKDPLTFGGGTKVEIKRTVAAPSVFIFPPSDEQLKSGTASVVCLLNNFYPREAKVQWKVDNALQSGNSQESVTEQDSKDSTYSLSSTLTLSKADYEKHKVYACEVTHQGLSSPVTKSFNRGEC
# notes: Humanized, human IgG1 / kappa; h160 VH1 + h160 VL1
# B2: h160-03 (antibody, human IgG1, kappa, V domains shown)
# VH: EVQLVESGGGLVQPGGSLRLSCAASGFTFSDYGMHWVRQAPGKGLEWVAFISTGSSNIYYVDKVKGRFTISRDNAKNTLYLQMTSLRAEDTAVYYCARNYVSSYGYFDYWGQGTTVTVSS
# VL: DIVLTQSPASLAVSLGERATINCRASESVDNYGISFMHWYQQKPGQPPKLLIYRASNLESGVPARFSGSGSRTDFTLTISSLQAEDVAVYYCQQTNKDPLTFGGGTKVEIKR
# B3: h160-08 (antibody, human IgG1, kappa, V domains shown)
# VH: B2 VH with V48I
# VL: B2 VL with N22S, V62I
# B4: h011-04 (antibody, human IgG1, kappa, V domains shown)
# VH: B2 VH with T53S, N57S, V61A, K63T, N77S, T78S, Y80F, Y95S
# VL: B2 VL with L4M, A9D, S28N, A64D, T95S
# B5: h160-07 (antibody, human IgG1, kappa, V domains shown)
# VH: B2 VH with V48I
# VL: B2 VL
# B6: h011-05 (antibody, human IgG1, kappa, V domains shown)
# VH: B2 VH with T53S, N57S, V61A, K63T, N77S, T78S
# VL: B2 VL with L4M, A9D, S28N, V62I, A64D, V89T, T95S
# B7: h011-01 (antibody, human IgG1, kappa)
# heavy: not shown
# light: B1 light with A9D, S28N, T95S
# notes: Humanized, human IgG1 / kappa; h011 VH1 + h011 VL1
# B8: h160-06 (antibody, human IgG1, kappa)
# heavy: not shown
# light: B1 light with M4L
# B9: h160-02 (antibody, human IgG1, kappa)
# heavy: not shown
# light: B1 light with M4L
# B10: h160-05 (antibody, human IgG1, kappa)
# heavy: not shown
# light: B1 light
# B11: h160-04 (antibody, human IgG1, kappa, V domains shown)
# VH: B2 VH
# VL: B2 VL with N22S, V62I
# B12: h011-03 (antibody, human IgG1, kappa, V domains shown)
# VH: B2 VH with T53S, N57S, V61A, K63T, N77S, T78S
# VL: B2 VL with L4M, A9D, S28N, A64D, T95S
# B13: h011-02 (antibody, human IgG1, kappa, V domains shown)
# VH: B2 VH with T53S, N57S, V61A, K63T, N77S, T78S, Y80F, Y95S
# VL: B2 VL with L4M, A9D, S28N, A64D, R72G, T95S
# B14: ch-009 (antibody, human IgG1, V domains shown)
# VH: EFQLQQSGPELVKPGASVKISCKASGYSFTDYNLNWVKQSNGKSLEWIGVINPKYDAINYNQKFKDKATLTVDQSSSTAYMQLSSLTSEDSAVYYCAREGWGKALDYWGPGTSVIVSS
# VL: DFVLTQSPATLSVTPGDSVSLSCRASQSIYTNLHWYQQKSHESPRLLIKYASQSISGIPSRFSGSGSGTDFTLSINSVETEDSGMYFCQQSNSWPLTFGAGTKLELK
# notes: also called chimeric antibody of hybridoma clone m009
# B15: h009-07 (antibody, human IgG1, kappa)
# heavy: not shown
# light: EIVLTQSPATLSLSPGERATLSCRASQSIYTNLHWYQQKPGQSPRLLIKYASQSISGIPARFSGSGSGTDFTLTISSLEPEDFAVYYCQQSNSWPLTFGGGTKVEIKRTVAAPSVFIFPPSDEQLKSGTASVVCLLNNFYPREAKVQWKVDNALQSGNSQESVTEQDSKDSTYSLSSTLTLSKADYEKHKVYACEVTHQGLSSPVTKSFNRGEC
# notes: Humanized, human IgG1 / kappa; h009 VH2 + h009 VL2
# B16: h009-14 (antibody, human IgG1, kappa, V domains shown)
# VH: EFQLVQSGAEVKKPGASVKVSCKASGYTFTDYNLNWVKQAPGQSLEWMGVINPKYDAINYNQKFKDKVTLTVDQSASTAYMELSSLRSEDTAVYYCAREGWGKALDYWGQGTLVTVSS
# VL: EFVLTQSPATLSLSPGERATLSCRASQSIYTNLHWYQQKPGQSPRLLIKYASQSISGIPARFSGSGSGTDFTLTISSLEPEDFAVYFCQQSNSWPLTFGGGTKVEIKR
# B17: h009-11 (antibody, human IgG1, kappa, V domains shown)
# VH: B16 VH with F2V, K38R, S44R, K67R, L70I, V72R, Q74T
# VL: B16 VL
# B18: h009-15 (antibody, human IgG1, kappa, V domains shown)
# VH: B16 VH with M48I, V68A
# VL: B16 VL
# B19: h009-13 (antibody, human IgG1, kappa, V domains shown)
# VH: B16 VH with K38R, M48I, K67R, V68A, L70I, Q74T
# VL: B16 VL
# B20: h009-09 (antibody, human IgG1, kappa, V domains shown)
# VH: B16 VH
# VL: B16 VL with F2I, F87Y
# B21: h009-12 (antibody, human IgG1, kappa, V domains shown)
# VH: B16 VH with K38R, K67R, L70I, Q74T
# VL: B16 VL
# B22: h009-10 (antibody, human IgG1, kappa, V domains shown)
# VH: B16 VH with M48I, V68A
# VL: B16 VL with F2I, F87Y
# B23: h009-08 (antibody, human IgG1, kappa, V domains shown)
# VH: B16 VH with K38R, M48I, K67R, V68A, L70I, Q74T
# VL: B16 VL with F2I, F87Y
# B24: ch-011 (antibody, human IgG1, V domains shown)
# VH: EVQLVESGGGLVKPGGSLKLSCAASGFTFSDYGMHWVRQAPEKGLEWVAFISSGSSSIYYADTVKGRFTISRDNAKNTLFLQMTSLRSEDTAMYSCARNYVSSYGYFDYWGQGTTLTVSS
# VL: DIVMTQSPASLAVSLGQRATISCRASENVDNYGISFMHWYQQKPGQPPKLLIYRASNLESGIPARFSGSGSRTDFTLTINPVETDDVATYYCQQSNKDPLTFGSGTKLEIK
# notes: also called chimeric antibody of hybridoma clone m011
# B25: ch-160 (antibody, human IgG1, V domains shown)
# VH: B24 VH with A23V, V48I, S53T, S57N, A61V, T63K, S95Y
# VL: B24 VL with M4L, I21V, N28S, S95T, S104G, I110L
# notes: also called chimeric antibody of hybridoma clone m160
# B26: h011-06 (antibody, human IgG1, kappa, V domains shown)
# VH: B24 VH with K13Q, K19R, E42G, N77S, T78S, S88A, M93V, L116V
# VL: B2 VL with L4M, A9D, S28N, V62I, A64D, V89T, T95S
# Target: T1, Fusion protein of CD38 extracellular domain with His tag: CD38-ECD-His (human, UniProt P28907 43-300)
# T1 construct: unlabelled analyte in Biacore; also called human CD38-ECD-His; Human CD38-His
# Test: SPR (Biacore), antibody captured by anti-human Fc, CD38-ECD-His as analyte;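 note: human CD38-ECD-His flowed over the captured antibody with the signal tracked in real time, and association and dissociation curves were fitted to derive the affinity values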
# Description: Then the human CD38-ECD-His antigen passed through the surface of the chip, and a real-time detection for the reaction signal was performed with Biacore instrument. The resulting binding and dissociation curves were fitted to calculate the affinity values. After the dissociation of each cycle was completed in the experiment, the biochip was washed and regenerated with the regeneration solution supplied in the Human Fc Capture Kit (GE).
Kd,koff,kon,Binder
0.0687 nM,0.000136 s⁻¹,1.99e+06 M⁻¹ s⁻¹,B1
0.0779 nM,0.000187 s⁻¹,2.4e+06 M⁻¹ s⁻¹,B2
0.0782 nM,0.000179 s⁻¹,2.29e+06 M⁻¹ s⁻¹,B3
0.299 nM,0.00202 s⁻¹,6.76e+06 M⁻¹ s⁻¹,B4
0.0748 nM,0.000182 s⁻¹,2.43e+06 M⁻¹ s⁻¹,B5
0.309 nM,0.00213 s⁻¹,6.89e+06 M⁻¹ s⁻¹,B6
0.311 nM,0.00208 s⁻¹,6.68e+06 M⁻¹ s⁻¹,B7
0.0782 nM,0.000164 s⁻¹,2.09e+06 M⁻¹ s⁻¹,B8
0.0846 nM,0.000163 s⁻¹,1.93e+06 M⁻¹ s⁻¹,B9
0.0691 nM,0.000141 s⁻¹,2.05e+06 M⁻¹ s⁻¹,B10
0.0867 nM,0.000184 s⁻¹,2.12e+06 M⁻¹ s⁻¹,B11
0.306 nM,0.00213 s⁻¹,6.97e+06 M⁻¹ s⁻¹,B12
0.297 nM,0.00195 s⁻¹,6.59e+06 M⁻¹ s⁻¹,B13
0.234 nM,0.000477 s⁻¹,2.04e+06 M⁻¹ s⁻¹,B14
0.995 nM,0.0021 s⁻¹,2.11e+06 M⁻¹ s⁻¹,B15
0.815 nM,0.00185 s⁻¹,2.27e+06 M⁻¹ s⁻¹,B16
5.17 nM,0.0121 s⁻¹,2.33e+06 M⁻¹ s⁻¹,B17
0.745 nM,0.0017 s⁻¹,2.28e+06 M⁻¹ s⁻¹,B18
0.465 nM,0.00106 s⁻¹,2.28e+06 M⁻¹ s⁻¹,B19
2.14 nM,0.00489 s⁻¹,2.29e+06 M⁻¹ s⁻¹,B20
0.409 nM,0.000917 s⁻¹,2.24e+06 M⁻¹ s⁻¹,B21
2.12 nM,0.00433 s⁻¹,2.04e+06 M⁻¹ s⁻¹,B22
1.18 nM,0.00223 s⁻¹,1.89e+06 M⁻¹ s⁻¹,B23
0.199 nM,0.00148 s⁻¹,7.46e+06 M⁻¹ s⁻¹,B24
0.062 nM,0.00017 s⁻¹,2.74e+06 M⁻¹ s⁻¹,B25
0.3 nM,0.00201 s⁻¹,6.71e+06 M⁻¹ s⁻¹,B26
